According to patent publication US20240076389A1 (NATIONAL RESEARCH COUNCIL OF CANADA, published 2024):

T1: human AXL expressed on the cell surface of tumor cell lines (human, UniProt P30530 26-894)
T1 construct: whole, on cells; also called cell surface-expressed AXL; cell-based AXL
T1 sequence (looked up): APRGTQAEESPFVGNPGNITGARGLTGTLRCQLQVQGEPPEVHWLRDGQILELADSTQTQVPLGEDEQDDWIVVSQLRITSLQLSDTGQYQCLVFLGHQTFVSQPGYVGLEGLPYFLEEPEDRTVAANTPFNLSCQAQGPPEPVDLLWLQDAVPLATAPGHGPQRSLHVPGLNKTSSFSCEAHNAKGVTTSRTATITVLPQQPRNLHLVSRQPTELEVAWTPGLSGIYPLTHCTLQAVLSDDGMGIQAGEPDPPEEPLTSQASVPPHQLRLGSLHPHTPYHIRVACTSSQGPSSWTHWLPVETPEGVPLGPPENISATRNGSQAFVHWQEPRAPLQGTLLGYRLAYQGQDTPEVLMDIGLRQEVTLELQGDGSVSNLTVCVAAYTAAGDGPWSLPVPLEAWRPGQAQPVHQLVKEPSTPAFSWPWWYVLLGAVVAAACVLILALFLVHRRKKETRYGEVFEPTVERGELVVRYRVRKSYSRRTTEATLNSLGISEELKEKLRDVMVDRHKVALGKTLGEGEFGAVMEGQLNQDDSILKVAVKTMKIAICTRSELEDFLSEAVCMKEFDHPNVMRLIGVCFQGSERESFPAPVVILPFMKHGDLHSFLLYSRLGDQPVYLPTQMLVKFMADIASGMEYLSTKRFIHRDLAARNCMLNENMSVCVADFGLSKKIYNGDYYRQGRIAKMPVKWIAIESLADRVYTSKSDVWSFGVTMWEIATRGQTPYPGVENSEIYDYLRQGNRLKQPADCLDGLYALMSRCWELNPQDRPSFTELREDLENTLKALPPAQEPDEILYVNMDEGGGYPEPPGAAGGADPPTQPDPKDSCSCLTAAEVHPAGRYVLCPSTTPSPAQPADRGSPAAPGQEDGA

T2: mouse AXL extracellular domain (Sino cat. 51026-M08H) (mouse, UniProt Q00993 19-445)
T2 construct: extracellular domain; Bought protein; also called mouse AXL ECD
T2 sequence (looked up): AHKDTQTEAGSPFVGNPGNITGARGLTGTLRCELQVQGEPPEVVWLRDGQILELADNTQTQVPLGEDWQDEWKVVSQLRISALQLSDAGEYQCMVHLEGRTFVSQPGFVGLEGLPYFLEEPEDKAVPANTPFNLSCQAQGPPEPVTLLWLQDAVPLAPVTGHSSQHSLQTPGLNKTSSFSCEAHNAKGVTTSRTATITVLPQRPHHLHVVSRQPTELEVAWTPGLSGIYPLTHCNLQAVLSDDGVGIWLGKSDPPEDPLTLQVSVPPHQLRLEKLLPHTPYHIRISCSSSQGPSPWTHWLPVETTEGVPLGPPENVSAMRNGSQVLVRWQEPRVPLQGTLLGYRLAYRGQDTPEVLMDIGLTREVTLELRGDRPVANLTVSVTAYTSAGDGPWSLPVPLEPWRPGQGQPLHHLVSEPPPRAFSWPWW

T3: recombinant human AXL extracellular domain, C-terminally His8-tagged (rhAXL-ECD) (human, UniProt P30530 26-451)
T3 construct: Made in CHO cells; also called (rh)AXL-ECD His8; human AXL ECD
T3 sequence: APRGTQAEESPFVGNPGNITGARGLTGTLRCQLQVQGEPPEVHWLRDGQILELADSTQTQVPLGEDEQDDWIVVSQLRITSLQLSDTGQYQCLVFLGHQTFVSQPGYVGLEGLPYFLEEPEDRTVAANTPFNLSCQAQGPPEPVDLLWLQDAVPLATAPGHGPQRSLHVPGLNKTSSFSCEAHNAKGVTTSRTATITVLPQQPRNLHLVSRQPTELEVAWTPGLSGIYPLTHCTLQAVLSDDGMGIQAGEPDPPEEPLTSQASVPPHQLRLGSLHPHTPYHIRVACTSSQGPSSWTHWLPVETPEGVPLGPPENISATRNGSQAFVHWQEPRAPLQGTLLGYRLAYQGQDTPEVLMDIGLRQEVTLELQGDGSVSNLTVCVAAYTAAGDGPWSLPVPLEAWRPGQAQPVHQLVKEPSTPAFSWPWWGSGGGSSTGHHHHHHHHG

B1: NRC-sdAb006-Fc (VHH-human IgG1 Fc fusion) (Fc fusion)
chain: QVKLEESGGGLVQAGASLRLSCVASESIFGFNTMGWYRQAPGNERELVASISNSKRTMYADSVKGRFTISRDNAKNTVNLQMNNLKPEDTAVYYCRAWGIITSATVYWGQGTQVTVSS
notes: VHH fused N-terminally to human IgG1 Fc; also called NRC-sdAb006-hIgG1; not shown: human IgG1 Fc
B2: hFc-F111-5E9-DM1 (antibody, human IgG1, kappa, V domains shown)
VH: QIQLVQSGPELKKPGETVKISCKASGYTFTKYGMNWVKQAPGKGLKWMGWINTYTGEPTYADDFKGRFAFSLETSASTAYLQINNLTTEDMVTYFCAKGGYYSNPIYPMDYWGQGTSVTVSS
VL: DIQMTQTTSSLSASLGDRVTISCRASQDINNYLNWYQQKPDGTVKLLIYYISRLHSGVPSRFSGSGSGTDYSLTISNLELEDVATYFCQQGNTLPFTFGSGTKLEIKR
modifications: DM1 through SMCC linker on lysine residues; sites not given
B3: mIgG2 F149-4G4 (antibody, V domains shown)
VH: QIQLVQSGPELKKPGETVKISCKTSGYTFTYYGINWVKQAPGKGLEWMGWINTYLGEPTYADDFKGRFAFSLETSASTAYLQINNLRDEDMATYFCTRGTMSYSFDYWGQGTALTVSS
VL: QNVLTQSPAIMSASPGEEVTMTCRASSSVSSSYLHWYQQKSGASPKLWIYSTSKLASGVPARFSGSGSGTSYSLTISSVEAEDAATYYCHQYSGDPLTFGSGTKLEVK
notes: Printed as mIgG2 (mouse IgG2)
B4: mIgG2 F155-3C7 (antibody, V domains shown)
VH: QVQLQQPGTELVKPGASVKLSCKASGYIFTNFWINWVKQRPGQGLEWIGNIFPGSNSSNYNEKFKNKATLTVDKSSSTAYMHLSSLTSEDSAVYYCVRDYYGGSPDYWGQGTTLTVSS
VL: DIVMSQSPSSLAVSAGEKVTMSCKSSQSLLNSKTRKNYLAWYQQKPGQSPKLLIYWASTRESGVPARFTGSGSGTDFTLTISSVQAEDLAIYYCKHSYNLWTFGGGTKLEIR
notes: Printed as mIgG2 (mouse IgG2)
B5: NRC-sdAb005-Fc (VHH-human IgG1 Fc fusion) (Fc fusion)
chain: QVKLEESGGGLAQAGGSLRLSCAASGSISSINTIGWFRQAPGKQRELVAASDSGANRNYADSVKGRFTISRDNAKNTVYLQMNNLKPEDTAIYYCRAWGTGTISTMYWGQGTQVTVSS
notes: VHH fused N-terminally to human IgG1 Fc; also called NRC-sdAb005-hIgG1; not shown: human IgG1 Fc

Key:
[1] = biological target: T1, human AXL expressed on the cell surface …; test: FACS on MDA-MB-231 luciferase cells, apparent Kd, human Fc format
Procedure: (§1) FACS binding assay. Adherent cells were dissociated with non-enzymatic Sigma Cell Dissociation Solution (Cat. No. C5789). Cells suspensions were added to polypropylene, V-bottom 96-well plates and incubated for 2 hours on ice with primary antibodies at concentrations ranging from 100 nM to 0.001 nM or at a single dose of 100 nM (for the non-specific control). After incubation and washes, cells were incubated with fluorescently labeled secondary antibody (Alexa Fluor® 488 anti-human IgG from Jackson Cat. No 709-546-098) for 1 hour on ice, then washed. Cell viability was determined using Fixable viability dye 450 (20 min on ice). Stained cells were fixed in 1% formaldehyde at 4° C. and stored at 4° C. until acquisition which was performed the next day.
(§2) Binding of recombinant chimeric Abs to three cell lines was assessed by FACS as described above. The apparent Bmax and Kd determination is shown below in Table 14.

[2] = biological target: T2, mouse AXL extracellular domain (Sino …); test: ELISA on coated mouse AXL ECD (100 ng/well), VHH-Fc
Procedure: (§3) ELISA. ELISAs against human, cyno and mouse AXL ECDs were conducted by immobilizing 100 ng of each protein in wells of Nunc MaxiSorp microplates overnight. Human AXL (aa 1-451) and cyno AXL (aa 1-449) were produced recombinantly as described in Example 10. Mouse AXL was purchased from Sino (cat. 51026-M08H). The next day, plates were blocked with 5% (w/v) dried milk in PBS. Murine mAbs (either hybridoma- or recombinantly-produced) or VHH-Fcs were diluted in PBS containing 1% BSA and 0.1% Tween-20 and added to wells for 2 hours at room temperature. Wells were washed 5× with PBS containing 0.1% Tween-20, then HRP-labeled protein A (diluted 1:1000 in PBS containing 1% BSA and 0.1% Tween™-20) was added to wells for 1 hour at room temperature. Wells were washed again 5× with PBS/0.1% Tween-20 and developed using TMB substrate. Absorbance was measured at 450 nm. As a positive control for mouse AXL binding, a commercial anti-mouse AXL mAb (clone 175128, R&D Systems MAB8541, rat IgG2A) was used and detected with donkey […] secondary antibody.

[3] = biological target: T3, recombinant human AXL extracellular …; test: ELISA on coated AXL ECD (100 ng/well), VHH-Fc, HRP-protein A
Procedure: as §3

[4] = biological target: T1, human AXL expressed on the cell surface …; test: FACS on SKOV3 cells, apparent Kd, human Fc format
Procedure: as §1, §2

[5] = biological target: T4, recombinant cynomolgus AXL extracellular domain (cynomolgus); test: SPR, VHH-Fc captured, AXL ECD flowed, single-concentration kinetics (estimate)
T4 construct: range 1-449; also called Cyno AXL; cyno AXL ECD
Procedure: (§4) For VH Hs and VHH-Fcs, binding to human and cynomolgus AXL ECD was assessed using either a Biacore T200 instrument or a Biacore 3000 instrument. Either human AXL ECD or anti-human Fc antibody was immobilized on a research-grade CM5 series S sensor chip (T200, rhAXL ECD) or a C1 sensor chip (3000, anti-human Fc) using amine coupling in acetate buffer. VHH-Fcs were captured on anti-human Fc surfaces. Either monomeric VHHs (for rhAXL ECD surfaces) or human and cyno AXL ECD (for VHH-Fc surfaces) were flowed over the surfaces at different concentration ranges. Running buffers were HBS-EP (3000) and HBS-EP+(T200). Flow rates were 10-40 ul/min. All binding studies were performed at 25° C. Surfaces were regenerated using 10 mM glycine, pH 1.5.

[6] = biological target: T3, recombinant human AXL extracellular …; test: as above
Procedure: as §4

[7] = biological target: T1, human AXL expressed on the cell surface …; test: FACS on NCI-H292 cells, apparent Kd, human Fc format
Procedure: as §1, §2

[8] = biological target: T1, human AXL expressed on the cell surface …; test: cell-based or functional assay
[9] = biological target: T1, human AXL expressed on the cell surface …; test: cell-based or functional assay; remark: listed apart in the source
[10] = biological target: T3, recombinant human AXL extracellular …; test: SPR Biacore T200, mAb captured on anti-Fc, AXL ECD flowed, multi-cycle kinetics
Procedure: (§5) Surface plasmon resonance. For murine mAbs, binding to human and cynomolgus AXL ECD was assessed using a Biacore T200 instrument. Briefly, either anti-mouse or anti-human Fc antibody was immobilized on a research-grade CM5 series S sensor chip using amine coupling in acetate buffer. Murine or recombinant chimeric murine-human mAbs (mouse VH/VL; human constant regions) were captured, then recombinant human or cyno AXL ECD was flowed over the surface at different concentration ranges (0.1-500 nM) depending on the antibody. The running buffer was PBS/Tween-20 and the flow rate 100 uL/min. All binding studies were performed at 25° C. Surfaces were regenerated using 10 mM glycine, pH 1.5.

[11] = biological target: T3, recombinant human AXL extracellular …; test: ELISA on coated AXL ECD (100 ng/well), HRP-protein A
Procedure: as §3

[12] = biological target: T2, mouse AXL extracellular domain (Sino …); test: ELISA on coated mouse AXL ECD (100 ng/well)
Procedure: as §3

[13] = biological target: T4, recombinant cynomolgus AXL …; test: SPR Biacore T200, mAb captured on anti-Fc, AXL ECD flowed, multi-cycle kinetics
Procedure: as §5

Binder | Kd [1] | binding result [2] | EC50 [3] | Kd [4] | Kd [5] | koff [5] | kon [5] | Kd [6] | koff [6] | kon [6] | Kd [7] | Kd [10] | koff [10] | kon [10] | EC50 [11] | binding result [12] | other results
B1 | 0.832 nM | no binding | 1 nM | 13.4 nM | 26 nM | 0.0026 s⁻¹ | 100000 M⁻¹ s⁻¹ | 24 nM | 0.0021 s⁻¹ | 89000 M⁻¹ s⁻¹ | 2.12 nM |  |  |  |  |  | 
B2 |  |  |  |  |  |  |  |  |  |  |  |  |  |  |  |  | IC50 (read off the curve), growth inhibition of H292 cells, with added Gas6 (squares) [8]: ~0.04 nM; IC50 (read off the curve), growth inhibition of H292 cells, without added Gas6 (circles) [8]: ~0.04 nM; IC50 of growth inhibition (CellTiterGlo, 5 days) of NCI-H292 cells, -Gas6 [9]: 0.084 nM; IC50 of growth inhibition of NCI-H292 cells, +Gas6 (2 µg/mL) [9]: 0.074 nM
B3 |  |  |  |  |  |  |  |  |  |  |  | 1 nM | 0.0012 s⁻¹ | 750000 M⁻¹ s⁻¹ | 15 nM | no binding | 
B4 |  |  |  |  |  |  |  |  |  |  |  | 3 nM | 0.0018 s⁻¹ | 560000 M⁻¹ s⁻¹ | 14 nM | no binding | Kd [13]: 25 nM; koff [13]: 0.0073 s⁻¹; kon [13]: 290000 M⁻¹ s⁻¹
B5 | 1.47 nM | no binding | 1 nM | 2.03 nM | 35 nM | 0.0046 s⁻¹ | 130000 M⁻¹ s⁻¹ | 34 nM | 0.0041 s⁻¹ | 120000 M⁻¹ s⁻¹ | 1.47 nM |  |  |  |  |  | 
